1 substance from patent US20130266576A1 can be followed below.

The Kd is a measure of binding affinity in units of concentration. The low end stands for tighter binding, the high end for weaker binding.

This test has as its target von Willebrand factor (vWF) (UniProt P04275). As to the kind of experiment: solid-phase binding assay, vWF coated on wells, FVIII 0.05-6.4 nM, no antibody, detection with biotinylated 1F5; one-site model.

B-domain deleted factor VIII (FVIII), sequence (P00451 20-759, stated change not applied): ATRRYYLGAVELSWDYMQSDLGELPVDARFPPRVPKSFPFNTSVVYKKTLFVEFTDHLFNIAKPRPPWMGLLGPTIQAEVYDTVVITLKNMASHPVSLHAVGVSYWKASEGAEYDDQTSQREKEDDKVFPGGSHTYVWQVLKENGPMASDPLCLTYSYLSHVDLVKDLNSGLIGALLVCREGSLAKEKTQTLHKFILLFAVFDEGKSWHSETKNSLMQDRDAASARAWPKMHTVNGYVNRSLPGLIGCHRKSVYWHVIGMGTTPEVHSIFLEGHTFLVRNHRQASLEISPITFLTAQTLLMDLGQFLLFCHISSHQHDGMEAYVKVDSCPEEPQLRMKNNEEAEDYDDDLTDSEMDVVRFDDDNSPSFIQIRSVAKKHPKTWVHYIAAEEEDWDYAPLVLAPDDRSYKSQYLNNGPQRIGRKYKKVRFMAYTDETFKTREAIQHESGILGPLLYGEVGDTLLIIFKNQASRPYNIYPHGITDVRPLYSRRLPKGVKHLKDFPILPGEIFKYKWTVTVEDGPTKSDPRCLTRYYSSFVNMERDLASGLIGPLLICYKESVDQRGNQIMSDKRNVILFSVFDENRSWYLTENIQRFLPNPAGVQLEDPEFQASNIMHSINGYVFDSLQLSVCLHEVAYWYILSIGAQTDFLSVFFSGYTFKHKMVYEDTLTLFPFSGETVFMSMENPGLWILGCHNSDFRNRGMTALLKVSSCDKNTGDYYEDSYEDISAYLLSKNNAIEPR
B-domain deleted factor VIII (FVIII), sequence (P00451 1668-2351, stated change not applied): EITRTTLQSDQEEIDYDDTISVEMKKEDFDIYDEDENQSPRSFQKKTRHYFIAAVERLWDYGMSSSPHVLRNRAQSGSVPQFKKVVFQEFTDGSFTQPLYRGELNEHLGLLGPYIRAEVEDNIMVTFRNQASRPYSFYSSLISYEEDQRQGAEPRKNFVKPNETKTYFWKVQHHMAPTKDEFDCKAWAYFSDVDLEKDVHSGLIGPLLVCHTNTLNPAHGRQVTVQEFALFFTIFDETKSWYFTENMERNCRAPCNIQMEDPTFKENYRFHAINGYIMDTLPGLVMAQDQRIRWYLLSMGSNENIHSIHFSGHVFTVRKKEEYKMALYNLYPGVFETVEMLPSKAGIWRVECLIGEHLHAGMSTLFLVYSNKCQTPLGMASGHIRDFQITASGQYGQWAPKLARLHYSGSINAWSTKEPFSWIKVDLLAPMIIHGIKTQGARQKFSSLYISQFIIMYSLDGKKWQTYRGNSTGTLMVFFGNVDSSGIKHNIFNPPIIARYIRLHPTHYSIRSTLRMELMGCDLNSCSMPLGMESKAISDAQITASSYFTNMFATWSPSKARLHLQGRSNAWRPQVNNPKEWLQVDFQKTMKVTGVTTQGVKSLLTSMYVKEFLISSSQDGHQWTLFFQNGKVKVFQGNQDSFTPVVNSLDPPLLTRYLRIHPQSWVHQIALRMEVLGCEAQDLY

In the case of “B-domain deleted factor VIII (FVIII) (from UniProt P00451 20-759; P00451 1668-2351)”, the Kd is 0.29 nM.
